Data taken from US20250236667A1, “ANTIBODIES TO MUTANT CALRETICULIN AND USES THEREOF” (CENTRAL ADELAIDE LOCAL HEALTH NETWORK INC, priority 2021, published 2025).

Key:
[1] = system: TpoR in TF-1 TpoR CALR^del61; experiment: TpoR tyrosine phosphorylation, immunoprecipitation and Western blot; type: cell-based, human; conditions: 8 hours of 20 μg/mL
Method: A. Cell extracts blotted for phospho-STAT1, total STAT1, phospho-STAT3, total STAT3 and actin from TF-1 TpoR cells after incubation with 10 or 20 μg/mL 4D7 or IgG for 4 or 8 hours as indicated. B. Similar experiment using TPO-independent TF-1 TpoR CALR^del61 cells at 4 and 8 hours. C. Similar experiment shown using TPO-independent TF-1 TpoR CALR^del52 cells, 8 hours. D. Flow cytometry analysis for cell cycle distribution of TF-1 TpoR CALR^del61 cells exposed to 20 μg/mL IgG or 4D7 for 48 hours. Cells were harvested and fixed and stained with propidium iodide and their DNA contents were analysed. Results from one representative experiment shown. Percentages of cells in Sub Go, G1. S and G2/M cycle indicated. E. Western blot showing specific co-immunoprecipitation of mutant CALR^del61 cells with TpoR anti-FLAG antibody under reducing conditions detected by total and mutant specific CALR antibodies. Arrowheads represent detected CALR protein. F. Western blot showing decreased TpoR phosphorylation in a TpoR immunoprecipitated after 8 hours of 20 μg/mL 4D7 treatment compared to PBS or IgG control in TF-1 TpoR CALR^del61. […]

[2] = system: ruxolitinib-resistant TF-1 TpoR CALR^del61 cells; experiment: Cell growth in liquid culture, trypan blue exclusion; type: cell-based, human; conditions: 20 μg/mL, 96 hours
Method: A. Graph showing effect of ruxolitinib on megakaryocyte differentiation at 50 and 100 nM in healthy CD34+ cells (n=4). B. Effect of 4D7 on TPO-dependent megakaryocyte differentiation of healthy CD34+ cells cultured with 20 μg/mL 4D7 or IgG control (n=4). C. Total numbers of hematopoietic colonies plated in MethoCult from healthy cord blood after treatment with 4D7 or IgG. CFU-GM, colony forming unit-granulocyte macrophage: BFU-E, blast forming unit-erythroid: CFU-GEMM, colony forming unit granulocyte, erythroid, monocyte, megakaryocyte (n=3).D. CD41+megakaryocyte colonies from healthy CD34+ cells observed on collagen matrix after 4D7 treatment. Colonies were cultured in TPO, SCF. IL-9 and IL-3. E. Number of megakaryocyte colony forming units observed in MegaCult assay after treatment of healthy cord blood CD34+ cells with either IgG or 4D7 (n=3). F. Western blot showing signalling in ruxolitinib-resistant TF-1 TpoR CALR^del61 compared to ruxolitinib sensitive TF-1 TpoR CALR^del61 cells after treatment with 100 nM ruxolitinib for 16 hours or 30 minutes and blotted for phospho-STAT5, total STAT5, phospho-ERK, total ERK and actin as indicated. Ruxolitinib-sensitive cells were non-viable after 16 hours of treatment. […] Cells counted using Trypan Blue exclusion with replicate wells (n=3). […]

B1: 4D7: rat monoclonal IgG2a antibody against the mutant CALR neoepitope; VH SEQ ID NO: 5, VL SEQ ID NO: 7 (antibody, listed as Rattus rattus, V domains shown)
VH: QVQLQQSGAELAKPGSSVKISCKASGYTFTNYDMSWIKQRPGQALEWIGAINPGNGVTDYNEKFRGKATLTVDKSSSTAFMQLSSLTPEDTAVYHCAREYRDNYGYFDYWGQGVMVTVSS
VL: DIVLTQTPVSLSVTLGDQASISCRSSQSLEYSDGYTYLDWFLQKPGQSPQLLIYEVSSRFSGVPDRFIGRGSGTDFTLKISRVEPEDLGVYYCFQATHDPFTFGSGTKLEIK
With B1 the TpoR tyrosine phosphorylation [1] was “inhibition” and the “inhibitory activity on cell growth in liquid culture” value [2] was “strong inhibitory activity”.
